# The nanobody polyreactivity screen of Harvey et al. (2022)
# Test: yeast display, Sf9 membrane polyspecificity reagent, FACS + sequencing; frameworks hold sequencing errors
# Method in brief: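 Using colony PCR, genes from sorted yeast display clones were amplified, then sequenced on MiSeq at 2 × 250 and filtered by CDR length. The clones had been stained with 10% biotinylated, detergent-solubilized Sf9 membrane reagent for 1 hour at 4 °C and sorted by FACS into low and high (top ~1%) gates on anti-HA and streptavidin fluorescence. Polyreactivity labels come from the gate of origin.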
row,Sequence,polyreactivity (PSR sort gate)
1,QVQLVESGGGLVQAGGSLRLSCAASGSTFRVYAMGWYRQAPGTERELVATINVSGGSTYYADSVKGRFTISRDNAKNTVYLQMNSLKPEDTAVYYCAKEDGAYGYPFDYWGQGTQVTVSS,low polyreactivity
2,QVQLVESGGGLVQAGGSLRLSCAASGSTFRVYAMGWYRQATGKERELVAAIRWRGVTTYADSVKGRFTISRDNAKNTVYLQMNSLKPEDTAVYYCARDVNYPGSEGDYWGQGTQVTVSS,low polyreactivity
3,QVQLVESGGGLVQAGGSLRLSCAASGSTFRWYAMGWYRQAPGKERELVAAISGSGGSTYYADSVKGRFTISRDNAKKTVYLQMNSLKPEDTAVYYCNKRYFTYLGEHTVGYWGQGTQVTVSS,high polyreactivity
4,QVQLVESGGGLVQAGGSLRLSCAASGSTFRYNAMGWYRQAPGKERELVAAINRGGGTDYADSVKGRFTISRDNAKNTVYLQMNSLKPEDTAVYYCAAAYLRYVSTQYHYDDWGQGTQVTVSS,low polyreactivity
5,QVQLVESGGGLVQAGGSLRLSCAASGSTFRYNAMGWYRQAPGKERELVAAITSSGGRTYYADSVKGRFTISRDNAKKTVYLQRISLKPEDTAVYYCDAYAYYHTGDDYWGQGTQVTVSS,high polyreactivity
6,QVQLVESGGGLVQAGGSLRLSCAASGSTFRYNAMGWYRQAPGKERELVAAITSSGSRTYYADSVKGRFTISRDNAKNTVYLQMNSLKPEDTAVYYCAAYGYYTKVTKYDYWGQGTQVNVSS,high polyreactivity
7,QVQLVESGGGLVQAGGSLRLSCAASGSTFRYNAMGWYRQAPGKERELVAGISYRGGTTYYADSVKGRFTISRDNAKNTVYLQMNSLKPEDTAVYYCAADSRAKRYYWGQGTQVTVSS,high polyreactivity
8,QVQLVESGGGLVQAGGSLRLSCAASGSTFRYNAMGWYRQAPGKERELVATITGSGGSTYYADSVKGRFTISRDNAKNTVYLQMNSLKPEDTAVYYCTARYVYGAYSSLSAHYYWGQGTQVTVSS,high polyreactivity
9,QVQLVESGGGLVQAGGSLRLSCAASGSTFRYNVMGWYRQAPGKERELVAAISSGGSTYYADSVKGRFTISRDNAKNTVYLQMNSLKPEDTAVYYCAAPRYLFFVGLGMDYWGQGTQVTVSS,high polyreactivity
10,QVQLVESGGGLVQAGGSLRLSCAASGSTFRYYAMGWYRQAPGKEREFVATINKSGGSTYYADSVKGRFTISRDNEKNTVYLQMNSLKPEDTAVYYGATRKSGGYRYDYWGQGTQVTVSS,high polyreactivity
11,QVQLVESGGGLVQAGGSLRLSCAASGSTFRYYAMGWYRQAPGKERELVAAISGSGGRTYYADSVKGRFTISRDNAKNTVYLQMNSLKPEYTAVYYCNTRGRSTDYDYWGQGTQVTVSS,high polyreactivity
12,QVQLVESGGGLVQAGGSLRLSCAASGSTFRYYAMGWYRQAPGKERELVAAISGSGGRTYYADSVKGRFTISRDNAKNTVYLQMYSLKPEDTAVYYCAASRYQFYWGQGTQVTVSS,high polyreactivity
13,QVQLVESGGGLVQAGGSLRLSCAASGSTFRYYAMGWYRQAPGKERELVAAISKSGGRTYYADSVKGRFTISRDNAKNTVYLEMNSLKPEDTAVYYCAADCVARYQKGQYDYWGQGTQVTVSS,high polyreactivity
14,QVQLVESGGGLVQAGGSLRLSCAASGSTFRYYAMGWYRQAPGKERELVAAISSAGTTYYADSVKGRFTISRDNAKNTVYLQMNSLNPEETAVYYCAAKYSYYTYAGDGGLFSWSYGYWGQGTQVTVSS,low polyreactivity
15,QVQLVESGGGLVQAGGSLRLSCAASGSTFRYYAMGWYRQAPGKERELVAAITYRATSTYYADSVEGRFTISRDNAKNTVYLQMNSLKPEYTAVYYCAAYSTYSRSDYWGQGTQVTVSS,high polyreactivity
16,QVQLVESGGGLVQAGGSLRLSCAASGSTFRYYAMGWYRQAPGKERELVAANTYRATSTYYADSVKGRFTISRDNAKNTVYLQMNSLKPEDTAVYYCAAYSTYSRYDYWGQGTQVTVSS,high polyreactivity
17,QVQLVESGGGLVQAGGSLRLSCAASGSTFRYYAMGWYRQAPGKERELVAGISSSGGRTYYADSVKGRFTISRDNAKNTVYLQMNSLKPEDTAVYYCAAVRSSWSYYYWGQGTQVTVSS,high polyreactivity
18,QVQLVESGGGLVQAGGSLRLSCAASGSTFRYYAMGWYRQEPGKERELVASITRGASTNYADSVKGRFTISRDNAKNTVYIQMNSLKPEDTAVYYCAADNYWHTFGGTDLRDDYWGQGTQVTVSS,low polyreactivity
19,QVQLVESGGGLVQAGGSLRLSCAASGSTFRYYAMGWYSQAPGKERELVASISSGGSTNYADSVKGRFTISRDNAKNTVYLQMNSLKPEDTAVYYCNADSWTVNRRYYYYRYEYWGQGTQVTVSS,low polyreactivity
20,QVQLVESGGGLVQAGGSLRLSCAASGSTFRYYDMGWYRQAPGKERELVADISSGGSTYYADSVKGRFTISRDNAKNTVYLQMNSLKPEDTAVYYCAAAYLSWLFRYDYWGQGTQVTVSS,high polyreactivity
21,QVQLVESGGGLVQAGGSLRLSCAASGSTFRYYTMGWYRQAPGKERELVASISRSGSTSYADSVKGRFTISRDNAKNTVYLQMNSLKPEDSAVYYCAGESYFGAYAGYDYWGQGTQVTVSS,low polyreactivity
22,QVQLVESGGGLVQAGGSLRLSCAASGSTFRYYVMGWYRQAPRKERELVAGISYRGGTTYYADSVKGRFSISRDNAKNTVYLQMNSLKPEDTAVYYCAADSTPYVLSGNYDYWGQGPQVTVSS,low polyreactivity

row,Sequence,polyreactivity (PSR sort gate)
1,QVQLVESGGGLVQAGGSLRLSCAASGSTFSANAMGWYRQAPGKERELVAAITYRGGNTYYADSVKGRFTISRDNAKNTVYLQMNSLKPEDTAVYYCNRDLRVRYRRMKYGYWGQGTQVTVSS,low polyreactivity
2,QVQLVESGGGLVQAGGSLRLSCAASGSTFSANAMGWYRQAPGKERELVASISRGGGSTYYADSVKGRFTISRDTAKNTVYLQMNSLKPDDTAVYYCAAVYYRRISQGDTQTYYQYNYWGQVTQVTVSS,high polyreactivity
3,QVQLVESGGGLVQAGGSLRLSCAASGSTFSANAMGWYRQAPGKERELVASISRRGGSTYYADSVKGRFTISRDYAKNTVYLQMNSLKPEDTAVYYCNKRIARQGSPSEYGRSQIGYYYWGQGTQVTVSS,high polyreactivity
4,QVQLVESGGGLVQAGGSLRLSCAASGSTFSANGMGWYRQAPGKERELVAAISARGGITYYADSVKGRFTISRDNAKNTVYLQMNSVKPEDTAVYYCNQRKYYRSTKYNYWGQGTQVTVSS,high polyreactivity
5,QVQLVESGGGLVQAGGSLRLSCAASGSTFSAYAMGWYRQAPGKERELVASNSYSGSSTYYADSVKGRFTISRDNAKNTVYLQMNSLKPEESAVYYCAAVYVRKGTRYGYWGQGTQVTVSS,high polyreactivity
6,QVQLVESGGGLVQAGGSLRLSCAASGSTFSAYVMGWYRQAPVKERELVAAISSIGGSTYYADSVKGRFTISRDNAKNTVYLQMNSLKPEDTAVYYCAAEPPGSTYEGGYWGQGTQVTVSS,low polyreactivity
7,QVQLVESGGGLVQAGGSLRLSCAASGSTFSDYAMGWYRPEPGKERELDATITSTGDTNYADSVKGRFTMSRDNAKTTVYLQMNSLKPEDTAVYYCAAQHKKYGKRGRWNNFGYWGQGTQVTVSS,low polyreactivity
8,QVQLVESGGGLVQAGGSLRLSCAASGSTFSDYAMGWYRQAPGKERELVAAISGGGTTDYADSVKGRFTISRDNAKNTVYLQMNSLKPEDTAVYYCNKPVEGSFLPYSYLRFDYWGQGTHVTVSS,low polyreactivity
9,QVQLVESGGGLVQAGGSLRLSCAASGSTFSDYAMGWYRQAPGKERELVAGITETGTTTYYADSVKGRFTISRDNAKNTVYLQMNSLKPEDTAVYYCAAYVVTYYYGTGYYSYDYWGQGTQVTVSS,low polyreactivity
10,QVQLVESGGGLVQAGGSLRLSCAASGSTFSENAMGWYRQAPGKERELVAAISWGGGSTYYADSVKGRFTISRDNAKNTVYLQMNSLKPEDTAVYYCIADVFDDYGYFESDYWGQGTQVTVSS,low polyreactivity
11,QVQLVESGGGLVQAGGSLRLSCAASGSTFSFNAMGWYRQAPGKERELVAAISRSGGRTYYADSVKGRFTISRDNAKNTVYLQMNSLKPEDTAVYYCNKVWFQRSVQPVEYVYWGQGTQVTVSS,high polyreactivity
12,QVQLVESGGGLVQAGGSLRLSCAASGSTFSFNAMGWYRQAPGKERELVAAITYSGGDTYYADSVKGRFTISRDNAKNTVYLQMNSLKPEDTAVYYCAAKIPRPYAMDYWGQGTQVTVSS,low polyreactivity
13,QVQLVESGGGLVQAGGSLRLSCAASGSTFSFYAMGVYRQAPGKERELVAAISKSGGRTYYADSVKGRFTISRDNAKYTVYLQMNSLKPEDTAVYYCAARGNGQYVGKYYYWGQGTQVTVSS,high polyreactivity
14,QVQLVESGGGLVQAGGSLRLSCAASGSTFSFYAMGWYRQAPGKERELVAAISRSGGRTYYADSVKGRFTISRDNAKNTVYLQMNSLKPEDTAVYYCAVEVTHYIHYYYWGQGNQVTVSS,high polyreactivity
15,QVQLVESGGGLVQAGGSLRLSCAASGSTFSFYAMGWYRQAPGKERELVAAISRSGGSTFYADSVKGRFTISRDNAKNTVYLQMNSLKPEDTAVYYCAAYGGLQSRYYYWGQGTQVTVSS,high polyreactivity
16,QVQLVESGGGLVQAGGSLRLSCAASGSTFSGNAMGWYRQAPGKERELVAAITSSGGSTYYADSVKGRFTISRDNAKNTVYLQMNSLKPEDTAVYYCAADGQYYYGFDYWGQGTQVTVSS,high polyreactivity
17,QVQLVESGGGLVQAGGSLRLSCAASGSTFSGNARGWDRQAPGKERELVAAISRRGGSTNYADSVKGRFTISRDNAKYTVYLKMNSLKPEDTAVYYCNKGDYRSAYRHIEYGYWGQGTQVTVSS,low polyreactivity
18,QVQLVESGGGLVQAGGSLRLSCAASGSTFSGYAMGWYRLAPGKERELVASISSGGRTTYADSVKGRFTISRDNAKYTVYLQMNSLKPEDTAVSYCANRIRPGYARLYSWGQGTQVTVSS,high polyreactivity
19,QVQLVESGGGLVQAGGSLRLSCAASGSTFSGYAMGWYRQAPGKERELVAAITLGGGSTYYADSVKGRFTISRDNAKNTVYLQMNSLKPEDTAVYYCAAGDIYYAEYDYWGQGTQVTVSS,low polyreactivity
20,QVQLVESGGGLVQAGGSLRLSCAASGSTFSGYAMGWYRQAPGKERELVAAITSGGGTYYADSVKGRFTISRDNAKNTVYLQMNSLKPEDTAVYYCAADGIARAYVLLDAYDFLYDYWGQGTQVTVSS,low polyreactivity
21,QVQLVESGGGLVQAGGSLRLSCAASGSTFSGYTMGWYRQAPGKEREFVAAISVSGGSTYYADSVKGRFTISRDNAKNTVYLQMNSLKPEDTAVYYCNTVTSGFLSYDYWGQGTQVTVSS,high polyreactivity
